{
  "source": "patent US20250123280A1",
  "about": "“LABEL-FREE DETECTION OF PROTEASE ACTIVITY” (OREGON HEALTH & SCIENCE UNIVERSITY, priority 2021, published 2025)",
  "molecules": {"B1": {"name": "Peptide 2 (Fmoc-FKFEAAN) (peptide)", "peptide": "Fmoc-FKFEAAN", "notes": "Synthetic peptide bought from GenScript (1048.2 g/mol); It is also the product of hydrolysis of peptide 1 by legumain; It self-assembles into many-copy nanoplatelets; also called protein 2; self-assembly precursor"}, "B2": {"name": "Recombinant mouse legumain (protein)", "chain": "VPVGVDDPEDGGKHWVVIVAGSNGWYNYRHQADACHAYQIIHRNGIPDEQIIVMMYDDIANSEENPTPGVVINRPNGTDVYKGVLKDYTGEDVTPENFLAVLRGDAEAVKGKGSGKVLKSGPRDHVFIYFTDHGATGILVFPNDDLHVKDLNKTIRYMYEHKMYQKMVFYIEACESGSMMNHLPDDINVYATTAANPKESSYACYYDEERGTYLGDWYSVNWMEDSDVEDLTKETLHKQYHLVKSHTNTSHVMQYGNKSISTMKVMQFQGMKHRASSPISLPPVTHLDLTPSPDVPLTILKRKLLRTNDVKESQNLIGQIQQFLDARHVIEKSVHKIVSLLAGFGETAERHLSERTMLTAHDCYQEAVTHFRTHCFNWHSVTYEHALRYLYVLANLCEAPYPIDRIEMAMDKVCLSHY"}},
  "key": {"[1]": {"test": "ThT fluorescence of self-assembled peptide 2 in assay buffer", "conditions": "peptide 2 0.58 mg/mL in assay buffer, ThT 90 μM", "method": "β-sheet rich nanoplatelet formation by self-assembly of peptide 2. […] Nano Lett. 2017, 17 (9), 5546-5554). […] ThT (90 μM) addition to this solution yielded a bright fluorescence with an emission maximum of about 490 nm (see FIG. 2)."}, "[2]": {"test": "Solubility in aqueous solutions", "format": "physicochemical"}, "[3]": {"target": "T1, cathepsin B (Homo sapiens, UniProt P07858)", "T1 construct": "purchased Bio-Techne", "test": "Cathepsin B assay with peptide 3 and ThT", "format": "biochemical", "conditions": "after treatment with cathepsin B (1000 ng/mL vs 0 ng/mL)", "method": "Peptide 3 was prepared as a 2.0 mg/mL solution in 1× phosphate buffered saline, pH 7.4 and 5% DMSO. In a typical assay experiment, 50 μL of the peptide 3 solution was mixed 50 μL of 50 mM MES buffer, pH 5 with cathepsin B at a concentration between about 0 and about 1000 ng/mL in a 96-well microplate and the plate was incubated at 37° C. for 2 hours. Then, 10 μL of 0.1 μm-filtered 1 mM aqueous ThT solution was added to each well and mixed for a final concentration of 90 μM ThT. After 15-30 min incubation at room temperature, the ThT fluorescence was measured at room temperature using a Tecan Spark 20M microplate reader."}, "[4]": {"target": "the molecule itself", "test": "circular dichroism of peptide 1 alone (self-assembly)"}, "[5]": {"target": "the molecule itself", "test": "self-assembly of peptide 2 in assay buffer; centrifugation, TEM, AFM", "procedure": "Transmission electron microscopy (TEM) and atomic force microscopy (AFM) imaging. […] After incubating at 37° C. for 2.0 hours, the formed aggregates were collected by centrifugation and resuspended in ultrapure water. […] TEM images were taken using a Tecnai microscope (FEI). To prepare TEM samples, 5 μL of solutions were placed on carbon film 200 copper mesh TEM grids. Samples were incubated on TEM grids for about 5 minutes and bloated and air dried. Uranyl acetate was prepared in distilled water at 2% w/v and filtered with a 0.1 μm syringe filter before each use. A 20 μl droplet of this solution was placed on Parafilm and the TEM grid was floated on it for 7 minutes. Excess uranyl acetate was blotted using Whatman paper, and the sample is left to dry at room temperature.\nThe morphology of these structures was investigated using transmission electron microscopy (TEM) and atomic force microscopy (AFM). […] AFM experiments were performed to further analyze the morphology of self-assembled nano-platelets."}, "[6]": {"target": "T2, Peptide 1 (Fmoc-Phe-Lys-Phe-Glu-Ala-Ala-Asn-Gly-Glu-Glu-Gly-Ser-Gly-Glu-Glu)", "T2 chain": "FKFEAANGEEGSGEE"}},
  "note": "Ends that are not written are not given here. Peptide text beside a SMILES is read from it. * marks the point of attachment. Fmoc = O=C(OCC1c2ccccc2-c2ccccc21)*",
  "data": [
    {"molecule": "C[C@H](NC(=O)[C@H](C)NC(=O)[C@H](CCC(=O)O)NC(=O)[C@H](Cc1ccccc1)NC(=O)[C@H](CCCCN)NC(=O)[C@H](Cc1ccccc1)NC(=O)OCC1c2ccccc2-c2ccccc21)C(=O)N[C@@H](CC(N)=O)C(=O)O", "note": "[peptide 2, Fmoc-FKFEAAN] (Fmoc-FKFEAAN-OH)", "values": [
      {"measurement": "enhancement in the ThT fluorescence intensity", "setting": "[1]", "value": 45, "unit": "fold"},
      {"measurement": "solubility in aqueous solutions", "setting": "[2]", "value": "not soluble in aqueous solutions"}
    ]},
    {"molecule": "Fmoc-FKFELAGGAGEEGSGEEE [peptide 3, cathepsin B substrate motif LAGGAG in place of the legumain substrate]", "values": [
      {"measurement": "increase in ThT fluorescence", "setting": "[3]", "value": "≤ 72", "unit": "fold"}
    ]},
    {"molecule": "Fmoc-FKFEAANGEEGSGEE (also called protein 1; the probe)", "note": "[Peptide 1 (Fmoc-Phe-Lys-Phe-Glu-Ala-Ala-Asn-Gly-Glu-Glu-Gly-Ser-Gly-Glu-Glu)]", "values": [
      {"measurement": "binding result", "setting": "[4]", "value": "no binding (tested: 0.333 mg/mL)"}
    ]},
    {"molecule": "B1", "values": [
      {"measurement": "binding result", "setting": "[5]", "value": "binds"}
    ]},
    {"molecule": "B2", "values": [
      {"measurement": "LC-MS, fraction of peptide 1 cleaved", "setting": "[6]", "value": "almost 30% of the peptide was cleaved by legumain"},
      {"measurement": "ON/OFF ratio of the assay in albumin depleted 20% plasma", "setting": "[6]", "value": "improve the ON/OFF ratio of the assay to about 10"},
      {"measurement": "ThT emission enhancement at 1 mg/mL peptide 1 (500 ng/mL legumain)", "setting": "[6]", "value": "a 28-fold enhancement in its emission was obtained at 1 mg/mL peptide concentration"},
      {"measurement": "ThT emission intensity enhancement at 1000 ng/mL legumain (1.0 mg/mL peptide 1, 2 h)", "setting": "[6]", "value": "about 32 fold at 1000 ng/mL legumain concentration"},
      {"measurement": "ThT emission intensity increase at peptide 1 below 0.25 mg/mL (500 ng/mL legumain)", "setting": "[6]", "value": "minimal (1.3-1.4 fold)"},
      {"measurement": "ThT fluorescence enhancement at 10.0 ng/mL legumain", "setting": "[6]", "value": "a slight (about 1.3 fold) fluorescence enhancement was obtained at the legumain concentration of 10.0 ng/mL"},
      {"measurement": "ThT fluorescence enhancement at 25.0 ng/mL legumain", "setting": "[6]", "value": "an easily detectable (about 3-fold) fluorescence enhancement was detected at 25.0 ng/mL"},
      {"measurement": "ThT fluorescence enhancement in 10% plasma (1000 ng/mL legumain, 25 µM ThT)", "setting": "[6]", "value": "a fluorescence enhancement of about 20 fold was obtained in 10% plasma at the legumain concentration of 1000 ng/mL"},
      {"measurement": "ThT fluorescence enhancement in 20% human plasma (1000 ng/mL legumain, 90 µM ThT)", "setting": "[6]", "value": "a detectable fluorescence enhancement (about 2.5 fold)"},
      {"measurement": "ThT fluorescence intensity at 24 hours relative to 2 hours (1000 ng/mL legumain)", "setting": "[6]", "value": "at 24 hours, the fluorescence intensity was about 2.5 higher compared with the intensity at two hours"},
      {"measurement": "limit of detection (LOD) of legumain in the peptide 1 / ThT assay", "setting": "[6]", "value": "about 12 ng/mL (0.21 nM)"},
      {"measurement": "limit of quantification (LOQ) of legumain in the peptide 1 / ThT assay", "setting": "[6]", "value": "about 25 ng/mL (0.45 nM)"},
      {"measurement": "minimum detectable legumain concentration in 10% plasma", "setting": "[6]", "value": "a minimum detectable concentration between 50 ng/mL to 200 ng/mL"}
    ]}
  ]
}
